For assay [1], the target named is human glucagon receptor (human, UniProt P47871 26-477). In words: cell-based or functional assay.
Assay [2] concerns the target T1, human glucose-dependent insulinotropic peptide receptor (human, UniProt P48546 22-466).
T1 sequence (looked up): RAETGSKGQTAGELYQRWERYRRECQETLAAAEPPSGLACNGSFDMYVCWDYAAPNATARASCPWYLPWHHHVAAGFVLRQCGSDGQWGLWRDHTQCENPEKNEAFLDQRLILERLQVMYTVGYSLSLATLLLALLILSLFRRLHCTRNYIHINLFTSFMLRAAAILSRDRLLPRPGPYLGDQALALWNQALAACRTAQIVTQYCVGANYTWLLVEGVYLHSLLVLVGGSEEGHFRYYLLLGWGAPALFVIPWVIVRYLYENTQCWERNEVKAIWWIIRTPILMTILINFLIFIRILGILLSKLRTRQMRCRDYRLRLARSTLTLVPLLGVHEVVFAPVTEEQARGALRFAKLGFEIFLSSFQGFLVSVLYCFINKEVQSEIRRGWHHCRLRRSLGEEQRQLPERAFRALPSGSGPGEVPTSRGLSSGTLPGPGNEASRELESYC
In words: cell-based or functional assay.

In assay [3] the target is human GLP-1 receptor (human, UniProt P43220 24-463). The assay can be described thus: cell-based or functional assay.
The target in assay [4] is T2, human glucose-dependent insulinotropic polypeptide (GIP) receptor (human, UniProt P48546 22-466).
T2 construct: whole, on cells; Assayed as crude membranes of stably transfected CHO cells; also called hGIPR; human GIP receptor
T2 sequence (looked up): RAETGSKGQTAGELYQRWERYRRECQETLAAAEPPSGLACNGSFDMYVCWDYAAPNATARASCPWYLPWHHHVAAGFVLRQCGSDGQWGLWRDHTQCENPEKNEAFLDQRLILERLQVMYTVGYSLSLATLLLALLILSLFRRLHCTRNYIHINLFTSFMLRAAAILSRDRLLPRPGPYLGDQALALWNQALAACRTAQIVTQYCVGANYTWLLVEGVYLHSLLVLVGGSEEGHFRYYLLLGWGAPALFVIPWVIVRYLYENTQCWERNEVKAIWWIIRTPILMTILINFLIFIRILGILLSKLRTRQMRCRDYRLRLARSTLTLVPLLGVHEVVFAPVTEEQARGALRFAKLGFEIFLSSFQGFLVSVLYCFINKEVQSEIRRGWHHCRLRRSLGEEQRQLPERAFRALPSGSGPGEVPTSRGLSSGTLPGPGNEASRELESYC
In words: SPA, displacement of [125I]-GIP from hGIPR membranes, 0.1% bacitracin. On the procedure: The binding buffer contains 25 mM HEPES, pH 7.4, 2.5 mM CaCl₂, 1 mM MgCl₂, 0.1% (w/v) bacitracin, 0.003% (w/v) TWEEN®-20, and Roche Complete™ Protease Inhibitors without EDTA. […] Plates are sealed and mixed on a plate shaker (setting 6) for 1 minute and read with a PerkinElmer Trilux MicroBeta® scintillation counter after 2.5 to 12 hours of incubation/settling time at room temperature.
Data are analyzed using four-parameter (curve maximum, curve minimum, […], Hill slope) nonlinear regression routines (Genedata Screener, version 12.0.4, Genedata AG, Basal, Switzerland). […] Values for Kᵢ are reported as the geometric mean, with error expressed as the standard error of the mean (SEM) and n is equal to the number of independent replicates (determined in assays performed on different days). Geometric Means are calculated as follows: […]

Starred links: 1 amine or outer side, 2 acyl side, 3 side chain; linkers in the order of their positions; H or OH if unused. Non-standard residues stand in square brackets, D forms with d. Groups on a side chain read outwards from the residue. No end group written: not given here. *: point of attachment. C20 diacid = O=C(O)CCCCCCCCCCCCCCCCCCC(=O)*; C18 diacid = O=C(O)CCCCCCCCCCCCCCCCC(=O)*; αMePhe(2-F) = C[C@](N)(Cc1ccccc1F)C(=O)O; γGlu = O=C(O)[C@H](CCC(=O)[*:2])N[*:1]; 4Pal = N[C@@H](Cc1ccncc1)C(=O)O; αMeL = CC(C)C[C@](C)(N)C(=O)O; Orn = NCCC[C@H](N)C(=O)O; AEEA = NCCOCCOCC(=O)O; Aib = CC(C)(N)C(=O)O

The term Ki denotes the dissociation constant of the complex between target and ligand, obtained from inhibition or displacement.

human glucagon receptor, sequence (P47871 26-477): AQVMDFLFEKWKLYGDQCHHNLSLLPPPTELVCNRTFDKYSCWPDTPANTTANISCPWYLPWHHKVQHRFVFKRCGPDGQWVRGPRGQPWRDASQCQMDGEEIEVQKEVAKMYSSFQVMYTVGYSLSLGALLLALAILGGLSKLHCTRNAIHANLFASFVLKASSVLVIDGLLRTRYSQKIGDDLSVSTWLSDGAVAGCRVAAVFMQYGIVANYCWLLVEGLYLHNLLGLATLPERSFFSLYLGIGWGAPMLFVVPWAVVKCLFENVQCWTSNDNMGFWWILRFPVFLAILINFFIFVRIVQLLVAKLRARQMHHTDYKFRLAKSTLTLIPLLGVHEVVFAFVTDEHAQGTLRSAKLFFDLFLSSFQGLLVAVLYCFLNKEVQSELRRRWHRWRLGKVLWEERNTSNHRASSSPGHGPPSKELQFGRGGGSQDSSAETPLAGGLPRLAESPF

B1: Example 121 (peptide)
peptide: Y[Aib]EGT[αMePhe(2-F)]ISDYSILLDKIHQ[Aib]DFVE[4Pal]K([AEEA-AEEA-γGlu-C20 diacid])LEQGPSSGAPPPS-NH2
modifications: N-terminus assumed
SMILES: CC[C@H](C)[C@H](NC(=O)[C@H](CO)NC(=O)[C@H](Cc1ccc(O)cc1)NC(=O)[C@H](CC(=O)O)NC(=O)[C@H](CO)NC(=O)[C@@H](NC(=O)[C@](C)(Cc1ccccc1F)NC(=O)[C@@H](NC(=O)CNC(=O)[C@H](CCC(=O)O)NC(=O)C(C)(C)NC(=O)[C@@H](N)Cc1ccc(O)cc1)[C@@H](C)O)[C@@H](C)CC)C(=O)N[C@@H](CC(C)C)C(=O)N[C@@H](CC(C)C)C(=O)N[C@@H](CC(=O)O)C(=O)N[C@@H](CCCCN)C(=O)N[C@H](C(=O)N[C@@H](Cc1c[nH]cn1)C(=O)N[C@@H](CCC(N)=O)C(=O)NC(C)(C)C(=O)N[C@@H](CC(=O)O)C(=O)N[C@@H](Cc1ccccc1)C(=O)N[C@H](C(=O)N[C@@H](CCC(=O)O)C(=O)N[C@@H](Cc1ccncc1)C(=O)N[C@@H](CCCCNC(=O)COCCOCCNC(=O)COCCOCCNC(=O)CC[C@H](NC(=O)CCCCCCCCCCCCCCCCCCC(=O)O)C(=O)O)C(=O)N[C@@H](CC(C)C)C(=O)N[C@@H](CCC(=O)O)C(=O)N[C@@H](CCC(N)=O)C(=O)NCC(=O)N1CCC[C@H]1C(=O)N[C@@H](CO)C(=O)N[C@@H](CO)C(=O)NCC(=O)N[C@@H](C)C(=O)N1CCC[C@H]1C(=O)N1CCC[C@H]1C(=O)N1CCC[C@H]1C(=O)N[C@@H](CO)C(N)=O)C(C)C)[C@@H](C)CC
B1: the “hGcgR cAMP Rel EC50” value in assay [1] is more than 5000 nM. The “hGIPR cAMP Rel EC50” value in assay [2] was determined as 0.0196 nM. Also, in assay [3], the “hGLP1R cAMP Rel EC50” value was more than 5000 nM.

B2: Example 122 (peptide)
peptide: Y[Aib]EGTFISDYSI[αMeL]LD[Orn]IHQ[Aib]EFVE[4Pal]K([AEEA-AEEA-γGlu-C20 diacid])LEAGPSSGAPPPS-NH2
modifications: N-terminus assumed
SMILES: CC[C@H](C)[C@H](NC(=O)[C@H](CCCN)NC(=O)[C@H](CC(=O)O)NC(=O)[C@H](CC(C)C)NC(=O)[C@](C)(CC(C)C)NC(=O)[C@@H](NC(=O)[C@H](CO)NC(=O)[C@H](Cc1ccc(O)cc1)NC(=O)[C@H](CC(=O)O)NC(=O)[C@H](CO)NC(=O)[C@@H](NC(=O)[C@H](Cc1ccccc1)NC(=O)[C@@H](NC(=O)CNC(=O)[C@H](CCC(=O)O)NC(=O)C(C)(C)NC(=O)[C@@H](N)Cc1ccc(O)cc1)[C@@H](C)O)[C@@H](C)CC)[C@@H](C)CC)C(=O)N[C@@H](Cc1c[nH]cn1)C(=O)N[C@@H](CCC(N)=O)C(=O)NC(C)(C)C(=O)N[C@@H](CCC(=O)O)C(=O)N[C@@H](Cc1ccccc1)C(=O)N[C@H](C(=O)N[C@@H](CCC(=O)O)C(=O)N[C@@H](Cc1ccncc1)C(=O)N[C@@H](CCCCNC(=O)COCCOCCNC(=O)COCCOCCNC(=O)CC[C@H](NC(=O)CCCCCCCCCCCCCCCCCCC(=O)O)C(=O)O)C(=O)N[C@@H](CC(C)C)C(=O)N[C@@H](CCC(=O)O)C(=O)N[C@@H](C)C(=O)NCC(=O)N1CCC[C@H]1C(=O)N[C@@H](CO)C(=O)N[C@@H](CO)C(=O)NCC(=O)N[C@@H](C)C(=O)N1CCC[C@H]1C(=O)N1CCC[C@H]1C(=O)N1CCC[C@H]1C(=O)N[C@@H](CO)C(N)=O)C(C)C
Regarding B2, in assay [1], the “hGcgR cAMP Rel EC50” value is more than 5000 nM. The “hGIPR cAMP Rel EC50” value in assay [2] was 0.01 nM. Besides, in assay [3], the “hGLP1R cAMP Rel EC50” value was more than 5000 nM.

B3: Example 93 (peptide)
peptide: Y[dA]EGTFISDYSILLDKIAQ[Aib]DFVNWK([AEEA-AEEA-γGlu-C18 diacid])LAQGPSSGAPPPS-NH2
modifications: N-terminus assumed
SMILES: CC[C@H](C)[C@H](NC(=O)[C@H](CCCCN)NC(=O)[C@H](CC(=O)O)NC(=O)[C@H](CC(C)C)NC(=O)[C@H](CC(C)C)NC(=O)[C@@H](NC(=O)[C@H](CO)NC(=O)[C@H](Cc1ccc(O)cc1)NC(=O)[C@H](CC(=O)O)NC(=O)[C@H](CO)NC(=O)[C@@H](NC(=O)[C@H](Cc1ccccc1)NC(=O)[C@@H](NC(=O)CNC(=O)[C@H](CCC(=O)O)NC(=O)[C@@H](C)NC(=O)[C@@H](N)Cc1ccc(O)cc1)[C@@H](C)O)[C@@H](C)CC)[C@@H](C)CC)C(=O)N[C@@H](C)C(=O)N[C@@H](CCC(N)=O)C(=O)NC(C)(C)C(=O)N[C@@H](CC(=O)O)C(=O)N[C@@H](Cc1ccccc1)C(=O)N[C@H](C(=O)N[C@@H](CC(N)=O)C(=O)N[C@@H](Cc1c[nH]c2ccccc12)C(=O)N[C@@H](CCCCNC(=O)COCCOCCNC(=O)COCCOCCNC(=O)CC[C@H](NC(=O)CCCCCCCCCCCCCCCCC(=O)O)C(=O)O)C(=O)N[C@@H](CC(C)C)C(=O)N[C@@H](C)C(=O)N[C@@H](CCC(N)=O)C(=O)NCC(=O)N1CCC[C@H]1C(=O)N[C@@H](CO)C(=O)N[C@@H](CO)C(=O)NCC(=O)N[C@@H](C)C(=O)N1CCC[C@H]1C(=O)N1CCC[C@H]1C(=O)N1CCC[C@H]1C(=O)N[C@@H](CO)C(N)=O)C(C)C
As to B3, in assay [1], the “hGcgR cAMP Rel EC50” value was more than 5000 nM. Moreover, the “hGIPR cAMP Rel EC50” value in assay [2] worked out at 0.00482 nM. For the same molecule, in assay [3], the “hGLP1R cAMP Rel EC50” value was 884 nM.

B4: Example 93 (peptide)
peptide: Y[dA]EGTFISDYSILLDKIAQ[Aib]DFVNWK([AEEA-AEEA-γGlu-C18 diacid])LAQGPSSGAPPPS-NH2
modifications: N-terminus assumed
SMILES: CC[C@H](C)[C@H](NC(=O)[C@H](CCCCN)NC(=O)[C@H](CC(=O)O)NC(=O)[C@H](CC(C)C)NC(=O)[C@H](CC(C)C)NC(=O)[C@@H](NC(=O)[C@H](CO)NC(=O)[C@H](Cc1ccc(O)cc1)NC(=O)[C@H](CC(=O)O)NC(=O)[C@H](CO)NC(=O)[C@@H](NC(=O)[C@H](Cc1ccccc1)NC(=O)[C@@H](NC(=O)CNC(=O)[C@H](CCC(=O)O)NC(=O)[C@@H](C)NC(=O)[C@@H](N)Cc1ccc(O)cc1)[C@@H](C)O)[C@@H](C)CC)[C@@H](C)CC)C(=O)N[C@@H](C)C(=O)N[C@@H](CCC(N)=O)C(=O)NC(C)(C)C(=O)N[C@@H](CC(=O)O)C(=O)N[C@@H](Cc1ccccc1)C(=O)N[C@H](C(=O)N[C@@H](CC(N)=O)C(=O)N[C@@H](Cc1c[nH]c2ccccc12)C(=O)N[C@@H](CCCCNC(=O)COCCOCCNC(=O)COCCOCCNC(=O)CC[C@H](NC(=O)CCCCCCCCCCCCCCCCC(=O)O)C(=O)O)C(=O)N[C@@H](CC(C)C)C(=O)N[C@@H](C)C(=O)N[C@@H](CCC(N)=O)C(=O)NCC(=O)N1CCC[C@H]1C(=O)N[C@@H](CO)C(=O)N[C@@H](CO)C(=O)NCC(=O)N[C@@H](C)C(=O)N1CCC[C@H]1C(=O)N1CCC[C@H]1C(=O)N1CCC[C@H]1C(=O)N[C@@H](CO)C(N)=O)C(C)C
For B4, in assay [4], the Ki amounted to 0.043 nM.

B5: Example 13 (peptide)
peptide: Y[dA]EGTFISDYSILLDKK([AEEA-AEEA-γGlu-C20 diacid])HQQEFVNWLLAQGPSSGAPPPS-NH2
modifications: N-terminus assumed
SMILES: CC[C@H](C)[C@H](NC(=O)[C@H](CO)NC(=O)[C@H](Cc1ccc(O)cc1)NC(=O)[C@H](CC(=O)O)NC(=O)[C@H](CO)NC(=O)[C@@H](NC(=O)[C@H](Cc1ccccc1)NC(=O)[C@@H](NC(=O)CNC(=O)[C@H](CCC(=O)O)NC(=O)[C@@H](C)NC(=O)[C@@H](N)Cc1ccc(O)cc1)[C@@H](C)O)[C@@H](C)CC)C(=O)N[C@@H](CC(C)C)C(=O)N[C@@H](CC(C)C)C(=O)N[C@@H](CC(=O)O)C(=O)N[C@@H](CCCCN)C(=O)N[C@@H](CCCCNC(=O)COCCOCCNC(=O)COCCOCCNC(=O)CC[C@H](NC(=O)CCCCCCCCCCCCCCCCCCC(=O)O)C(=O)O)C(=O)N[C@@H](Cc1c[nH]cn1)C(=O)N[C@@H](CCC(N)=O)C(=O)N[C@@H](CCC(N)=O)C(=O)N[C@@H](CCC(=O)O)C(=O)N[C@@H](Cc1ccccc1)C(=O)N[C@H](C(=O)N[C@@H](CC(N)=O)C(=O)N[C@@H](Cc1c[nH]c2ccccc12)C(=O)N[C@@H](CC(C)C)C(=O)N[C@@H](CC(C)C)C(=O)N[C@@H](C)C(=O)N[C@@H](CCC(N)=O)C(=O)NCC(=O)N1CCC[C@H]1C(=O)N[C@@H](CO)C(=O)N[C@@H](CO)C(=O)NCC(=O)N[C@@H](C)C(=O)N1CCC[C@H]1C(=O)N1CCC[C@H]1C(=O)N1CCC[C@H]1C(=O)N[C@@H](CO)C(N)=O)C(C)C
In the case of B5, the Ki in assay [4] is 0.237 nM.

The record behind these values is patent US20210032299A1 (Eli Lilly, published 2021).
